The results in this text go back to publication PMC5340921.

The data set concerns the target T1, PPR10 (maize, UniProt B8Y6I0 38-786).
T1 sequence: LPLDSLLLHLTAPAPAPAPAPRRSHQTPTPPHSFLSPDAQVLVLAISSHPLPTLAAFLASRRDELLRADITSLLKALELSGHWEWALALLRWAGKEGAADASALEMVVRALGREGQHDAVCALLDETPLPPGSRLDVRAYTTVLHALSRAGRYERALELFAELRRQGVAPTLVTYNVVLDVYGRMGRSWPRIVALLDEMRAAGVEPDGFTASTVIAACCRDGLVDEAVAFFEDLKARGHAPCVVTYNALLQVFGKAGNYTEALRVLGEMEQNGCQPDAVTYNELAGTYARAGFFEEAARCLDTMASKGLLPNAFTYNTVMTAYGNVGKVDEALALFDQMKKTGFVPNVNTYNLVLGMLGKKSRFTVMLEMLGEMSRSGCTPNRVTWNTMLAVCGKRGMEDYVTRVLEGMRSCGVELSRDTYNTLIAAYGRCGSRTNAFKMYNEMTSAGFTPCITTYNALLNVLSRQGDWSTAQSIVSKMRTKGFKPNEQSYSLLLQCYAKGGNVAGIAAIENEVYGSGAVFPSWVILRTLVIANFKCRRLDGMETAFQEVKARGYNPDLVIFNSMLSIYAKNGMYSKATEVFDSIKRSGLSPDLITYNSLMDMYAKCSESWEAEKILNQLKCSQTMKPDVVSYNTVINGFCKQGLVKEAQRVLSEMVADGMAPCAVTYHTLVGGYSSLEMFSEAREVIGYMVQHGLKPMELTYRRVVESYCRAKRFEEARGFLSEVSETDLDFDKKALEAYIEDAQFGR
As to the kind of experiment: EMSA. For orientation: A gel shift assay detects complexes by their altered migration in electrophoresis.

With GUAUCCUUAACCAUUUC (ssRNA) [atpH WT 17-mer], the binding result is recorded as “binds”.
